Data as given in US20160289283A1.

Key:
Test in all cases: cell-based or functional assay
[1] = target: human Y1 receptor (human) (UniProt P25929)
[2] = target: human Y4 receptor (human) (UniProt P50391)
[3] = target: human Y2 receptor (human) (UniProt P49146)
Sequence of human Y2 receptor (human) (P49146 whole entry): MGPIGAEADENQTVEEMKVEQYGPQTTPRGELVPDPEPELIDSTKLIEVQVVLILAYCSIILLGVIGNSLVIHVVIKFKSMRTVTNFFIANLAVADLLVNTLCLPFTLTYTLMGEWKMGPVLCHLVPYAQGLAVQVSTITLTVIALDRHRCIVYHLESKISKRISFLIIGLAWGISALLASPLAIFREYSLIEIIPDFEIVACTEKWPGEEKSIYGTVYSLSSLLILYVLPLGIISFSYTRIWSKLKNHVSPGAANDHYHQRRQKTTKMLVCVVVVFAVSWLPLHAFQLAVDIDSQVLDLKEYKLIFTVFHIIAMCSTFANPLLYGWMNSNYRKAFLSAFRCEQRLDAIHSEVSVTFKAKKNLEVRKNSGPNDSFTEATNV

Sequence of human Y1 receptor (human) (P25929 whole entry): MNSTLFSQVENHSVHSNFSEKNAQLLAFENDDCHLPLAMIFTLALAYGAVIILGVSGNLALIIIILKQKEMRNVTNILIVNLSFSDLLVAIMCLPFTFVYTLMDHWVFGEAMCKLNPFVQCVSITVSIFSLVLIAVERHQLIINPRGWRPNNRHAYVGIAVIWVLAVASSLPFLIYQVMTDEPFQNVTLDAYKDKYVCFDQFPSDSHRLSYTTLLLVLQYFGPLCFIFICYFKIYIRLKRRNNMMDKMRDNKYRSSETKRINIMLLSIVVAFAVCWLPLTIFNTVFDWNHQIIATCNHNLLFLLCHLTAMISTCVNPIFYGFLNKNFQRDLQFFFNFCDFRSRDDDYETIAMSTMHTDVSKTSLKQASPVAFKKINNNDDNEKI
Sequence of human Y4 receptor (human) (P50391 whole entry): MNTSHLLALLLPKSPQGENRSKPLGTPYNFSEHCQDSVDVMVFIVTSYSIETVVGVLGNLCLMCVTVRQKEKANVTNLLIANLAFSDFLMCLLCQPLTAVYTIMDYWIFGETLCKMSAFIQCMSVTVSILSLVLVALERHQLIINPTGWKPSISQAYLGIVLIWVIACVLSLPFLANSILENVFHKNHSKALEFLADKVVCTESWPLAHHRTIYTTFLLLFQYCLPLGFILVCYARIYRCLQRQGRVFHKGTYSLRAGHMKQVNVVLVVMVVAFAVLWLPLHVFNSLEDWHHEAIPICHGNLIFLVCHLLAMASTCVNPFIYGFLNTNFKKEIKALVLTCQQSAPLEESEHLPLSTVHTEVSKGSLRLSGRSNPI

| Substance | EC50, Actone functional potency assay [1] | EC50, Actone functional potency assay [2] | EC50, Actone functional potency assay [3] |
| --- | --- | --- | --- |
| 7-N{Epsilon}-[2-[2-[2-[[2-[2-[2-[[(4S)-4-carboxy-4-(16-sulfohexadecanoylamino)-butanoyl]amino]ethoxy]ethoxy]acetyl]amino]ethoxy]ethoxy]acetyl]-[Lys7,Gln18,Trp30,NMeArg35]hPYY(3-36) (peptide) | > 1000 nM |  |  |
| 4-N{alpha}-(3-Methylbutanoyl)-7-N{Epsilon}-[2-[2-[2-[[2-[2-[2-[[(4S)-4-carboxy-4-[[(4S)-4-carboxy-4-(16-sulfohexadecanoylamino)butanoyl]amino]butanoyl]amino]-ethoxy]ethoxy]acetyl]amino]ethoxy]ethoxy]acetyl]-[Lys7,Gln18,Trp30,NMeArg35]hPYY(4-36) (peptide) |  | > 1000 nM |  |
| 7-N{Epsilon}-[2-[2-[2-[[2-[2-[2-[[(4S)-4-carboxy-4-(16-sulfohexadecanoylamino)-butanoyl]amino]ethoxy]ethoxy]acetyl]amino]ethoxy]ethoxy]acetyl]-[Arg4,Lys7,Gln18,Trp30]hPYY(3-36) (peptide) | > 1000 nM | > 1000 nM | 1 nM |

More lines, now with the values ahead:

| EC50, Actone functional potency assay [1] | EC50, Actone functional potency assay [2] | EC50, Actone functional potency assay [3] | Substance |
| --- | --- | --- | --- |
| > 1000 nM |  |  | 7-N{Epsilon}-[2-[2-[2-[[2-[2-[2-[[2-[2-[2-[[2-[2-[2-[4-[16-(1H-tetrazol-5- yl)-hexadecanoylsulfamoyl]butanoylamino]ethoxy]ethoxy]acetyl]amino]ethoxy]-ethoxy]acetyl]amino]ethoxy]ethoxy]acetyl]amino]ethoxy]ethoxy]acetyl]-[Lys7,Gln18,Trp30,NMeArg35]hPYY(3-36) (peptide) |
| > 1000 nM |  |  | 4-N{alpha}-(hexanoyl)-7-N{Epsilon}-2-[2-[2-[[2-[2-[2-[[(4S)-4-carboxy-4-(16-sulfohexadecanoylamino)butanoyl]amino]ethoxy]ethoxy]acetyl]amino]ethoxy]-ethoxy]acetyl]-[Arg4,Lys7,Gln18,Trp30,NMeArg35]hPYY(4-36) (peptide) |
